Measurements taken from US20220088057.

Tested on: GST-fusion SMAD3 protein (Sigma-Aldrich Co. LLC.)

## His-fusion NEK6 protein (Eurofins Scientific SE)
  amount of phosphorylated SMAD3 (Western blot after in vitro kinase reaction of purified proteins with ATP): By using NEK6 protein, the amount of phosphorylated SMAD3 was elevated
